This data set addresses T1, RepA (ORF3) (Moraxella bovis ATCC 10900 (plasmid pMbo4.6)) (UniProt D0V0D3).
T1 sequence: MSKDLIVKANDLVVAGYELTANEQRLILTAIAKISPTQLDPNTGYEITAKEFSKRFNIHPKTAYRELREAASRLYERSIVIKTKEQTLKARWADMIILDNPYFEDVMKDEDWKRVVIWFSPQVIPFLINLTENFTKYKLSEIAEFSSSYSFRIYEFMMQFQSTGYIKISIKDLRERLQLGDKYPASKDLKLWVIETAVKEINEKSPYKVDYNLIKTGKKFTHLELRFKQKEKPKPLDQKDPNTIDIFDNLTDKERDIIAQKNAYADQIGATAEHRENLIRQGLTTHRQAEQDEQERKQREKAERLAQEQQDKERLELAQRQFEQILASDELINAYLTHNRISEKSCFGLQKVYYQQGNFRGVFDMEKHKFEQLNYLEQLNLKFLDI
Description: EMSA. The settings on record: 10 mM Tris-HCl pH 7.5, 10 mM MgCl2, 100 mM NaCl, 0.2 mM DTT, 5% glycerol, 30 ul, 22 C 20 min; 6% PAGE 0.4x TBE at 4 C. In general terms: In EMSA bound probe runs differently from free probe, usually more slowly.

Consider “AAGAATTCGGGCGTGGTTTTGGGGATTGATTTTGTTTTGTCTTTTTAGCTAAAAAAACAAGAAAATTAACAAGAAAAAGAGCCAAAACCGAGTGCTTTTTCGGTTTTGGCGTTTTTTTATTTTTTTAATATATTTTTAATAGTTTTTAGACCCCCTGCAAAGCCTTATGTATCAAAGGTTTGCG (double strand) [orirep32]”, for which the binding entry is “no binding”.
Consider “CTAGGAGGGATTGACTACCAAATAGGAGGGATTGACTACTCAAATAGGAGGGATTGACTACTCAAATAGGAGGGATTGACTACCAAATAGGAGTATTTACAATAACTCTTTTTAGGTGTATAATTAATTACTCCTTTTTTGCTAATGAGACCTAAAAATGAGCAAAGATTTAATTGTAGGATCCAA (double strand) [orirep15]”, for which the binding entry is given as “binds”.

For the origin of these results see publication PMC3557383.
